Measured values: patent US20240317807A1 (COMPLIX, published 2024)
Numbering of substitutions follows the chain as printed.

B1: Alphabody CMPX-383B (designed binder)
chain: MGHHHHHHHHHHSSGHIEGRHGPRPRPRPRPRPRPRPGGMSTEQIQKRTAAIQKRIAAIQKRIYAMTASGGAGAAGAGAGMSIEEITKQIAAIQLRIVGDQVQIAYQTASGAGAGAGGMSTEEIQKQIAAIETQICKIEAAIELKEAGITSDFYFELINKAKTCEAVEALKEHILAAHTPRPRPRPRPRPRPRPGSGKPIPNPLLGLDST
notes: an engineered disulfide bond links helix E to helix C; Has Ala at the position called 40
B2: CMPX_383B_Gly40 (designed binder)
chain: B1 chain with A166G

Key:
[1] = molecular target: MCL-1 (endogenous, in human multiple myeloma cells such as NCI-H929) (human, UniProt Q07820 1-350); test: cell-based or functional assay
MCL-1 (endogenous, in human multiple myeloma cells such as NCI-H929), sequence (Q07820 whole entry, the tested form may be a part): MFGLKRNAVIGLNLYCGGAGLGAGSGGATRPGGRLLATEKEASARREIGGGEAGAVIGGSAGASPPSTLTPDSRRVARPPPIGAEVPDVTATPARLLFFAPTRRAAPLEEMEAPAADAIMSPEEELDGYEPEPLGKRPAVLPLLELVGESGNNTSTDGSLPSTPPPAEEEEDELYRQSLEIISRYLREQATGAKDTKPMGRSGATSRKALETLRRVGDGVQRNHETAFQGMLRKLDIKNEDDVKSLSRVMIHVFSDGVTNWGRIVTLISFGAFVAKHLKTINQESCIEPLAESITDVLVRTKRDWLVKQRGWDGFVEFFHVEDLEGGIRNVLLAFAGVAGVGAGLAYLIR

[2] = molecular target: T1, GST-tagged MCL-1 (GST-MCL-1 fusion protein, MCL-1 residues Asp172-Gly327) (human, UniProt Q07820 173-327); test: solution ELISA, free GST-MCL-1 captured on Alphabody phage
T1 construct: not shown: Glutathione S-transferase fusion partner from the pET42 vector (Novagen)
T1 sequence (Q07820 173-327): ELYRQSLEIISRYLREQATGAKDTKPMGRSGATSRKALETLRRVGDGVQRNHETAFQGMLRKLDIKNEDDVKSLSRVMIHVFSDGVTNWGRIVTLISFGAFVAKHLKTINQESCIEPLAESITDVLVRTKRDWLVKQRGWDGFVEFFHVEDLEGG
Description: A Nunc plate was coated with 1 μg/mL anti-M13 (Fischer Scientific) in PBS for 2 h at room temperature (RT). The plate was then blocked with 2% skimmed milk in PBS for 2 h at RT while shaking. […] After each incubation step, the plate was washed 4× with PBS containing 0.05% Tween 20, except after the incubation step of the mixture and calibrator samples where the plate was washed 12 times. The plate was developed with Sure Blue and the reaction was stopped with H₂SO₄. Optical densities (ODs) were read at 450 nm.

[3] = molecular target: T2, human serum albumin (human, UniProt P02768 25-609); test: solution ELISA, KD 310 nM against 7.5 nM
T2 construct: also called HSA
Description: (§1) A Nunc plate was blocked O/N with PBS+2% skimmed milk in PBS at 4° C. […] In addition, a ‘calibrator’ dilution series of CPAB (seven 3-fold dilutions starting at 100 nM plus a blank) in 100 mM TRIS+100 mM NaCl+1% BSA at pH 7.4 was prepared. The albumin-CPAB mixtures and the calibrator series were then transferred to the ELISA plate in duplicate (two columns for each series) and incubated for another 30 min at RT while shaking. Detection of plate-bound CPAB was performed with 1/5000 anti-V5-HRP (Invitrogen. R961-25) in PBS+0.1% BSA for 30 min at RT while shaking. After each incubation step, the plate was washed 4× with PBS containing 0.05% Tween 20.

[4] = molecular target: T2, human serum albumin; test: solution ELISA, free CPAB detected on milk-blocked plate
Description: as §1

[5] = molecular target: T3, mouse serum albumin (mouse, UniProt P07724 25-608); test: as above
T3 construct: also called MSA
T3 sequence (P07724 25-608 limits assumed): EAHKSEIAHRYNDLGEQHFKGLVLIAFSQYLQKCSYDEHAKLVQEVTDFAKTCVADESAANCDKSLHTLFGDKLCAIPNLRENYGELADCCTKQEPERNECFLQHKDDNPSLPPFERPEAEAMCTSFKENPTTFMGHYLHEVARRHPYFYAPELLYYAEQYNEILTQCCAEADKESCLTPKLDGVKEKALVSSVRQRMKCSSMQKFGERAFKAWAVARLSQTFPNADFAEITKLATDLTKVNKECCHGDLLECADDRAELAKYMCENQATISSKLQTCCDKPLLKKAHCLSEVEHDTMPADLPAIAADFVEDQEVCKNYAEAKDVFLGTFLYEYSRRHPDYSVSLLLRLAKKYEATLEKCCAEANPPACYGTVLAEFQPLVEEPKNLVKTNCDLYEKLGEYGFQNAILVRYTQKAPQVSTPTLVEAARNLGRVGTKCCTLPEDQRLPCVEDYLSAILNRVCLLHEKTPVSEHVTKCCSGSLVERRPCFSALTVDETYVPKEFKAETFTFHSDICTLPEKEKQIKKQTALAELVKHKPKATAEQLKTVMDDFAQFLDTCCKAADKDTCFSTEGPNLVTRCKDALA
Description: as §1

Binder | in vitro IC50 on MM cell line MOLP-8 [1] [nM] | in vitro IC50 on MM cell line NCI-H929 [1] [nM] | Kd [2] [nM] | fold reduction in affinity against the Gly40 form [3] [fold] | Kd [4] [nM] | Kd [5] [nM]
B1 | 820 | 450 | 0.028 | 40 | 310 | 2250
B2 |  |  | 0.043 |  | 7.5 | 298
